The values below come from patent publication US20110105397A1, “METHOD FOR TREATING HEART FAILURE WITH STRESSCOPIN-LIKE PEPTIDES” (priority 2009, published 2011).

The labels stand for the following.
B1: Cys-variant stresscopin-like peptide SEQ ID NO: 4 (peptide)
peptide: TKCTLSLDVPTNIMNLLFNIAKAKNLRAQAAANAHLMAQI-NH2
B2: Cys-variant of stresscopin peptide with N-Ethylsuccinimide (NES) reactive group SEQ ID NO: 52 (peptide)
peptide: TKFTLSLDVPTNIMNLLFC(Succinimide(1-Et,3-yl))IAKAKNLRAQAAANAHLMAQI-NH2
modifications: N-terminus assumed
SMILES: CC[C@H](C)[C@H](NC(=O)[C@H](CCC(N)=O)NC(=O)[C@H](C)NC(=O)[C@H](CCSC)NC(=O)[C@H](CC(C)C)NC(=O)[C@H](Cc1c[nH]cn1)NC(=O)[C@H](C)NC(=O)[C@H](CC(N)=O)NC(=O)[C@H](C)NC(=O)[C@H](C)NC(=O)[C@H](C)NC(=O)[C@H](CCC(N)=O)NC(=O)[C@H](C)NC(=O)[C@H](CCCNC(=N)N)NC(=O)[C@H](CC(C)C)NC(=O)[C@H](CC(N)=O)NC(=O)[C@H](CCCCN)NC(=O)[C@H](C)NC(=O)[C@H](CCCCN)NC(=O)[C@H](C)NC(=O)[C@@H](NC(=O)[C@H](CSC1CC(=O)N(CC)C1=O)NC(=O)[C@H](Cc1ccccc1)NC(=O)[C@H](CC(C)C)NC(=O)[C@H](CC(C)C)NC(=O)[C@H](CC(N)=O)NC(=O)[C@H](CCSC)NC(=O)[C@@H](NC(=O)[C@H](CC(N)=O)NC(=O)[C@@H](NC(=O)[C@@H]1CCCN1C(=O)[C@@H](NC(=O)[C@H](CC(=O)O)NC(=O)[C@H](CC(C)C)NC(=O)[C@H](CO)NC(=O)[C@H](CC(C)C)NC(=O)[C@@H](NC(=O)[C@H](Cc1ccccc1)NC(=O)[C@H](CCCCN)NC(=O)[C@@H](N)[C@@H](C)O)[C@@H](C)O)C(C)C)[C@@H](C)O)[C@@H](C)CC)[C@@H](C)CC)C(N)=O
B3: Cys-variant stresscopin-like peptide SEQ ID NO: 2 (peptide)
peptide: CKFTLSLDVPTNIMNLLFNIAKAKNLRAQAAANAHLMAQI-NH2
B4: Cys-variant stresscopin-like peptide SEQ ID NO: 8 (peptide)
peptide: TKFTLSCDVPTNIMNLLFNIAKAKNLRAQAAANAHLMAQI-NH2
B5: Cys-variant of stresscopin peptide with N-Ethylsuccinimide (NES) reactive group SEQ ID NO: 54 (peptide)
peptide: TKFTLSLDVPTNIMNC(Succinimide(1-Et,3-yl))LFNIAKAKNLRAQAAANAHLMAQI-NH2
modifications: N-terminus assumed
SMILES: CC[C@H](C)[C@H](NC(=O)[C@H](CCC(N)=O)NC(=O)[C@H](C)NC(=O)[C@H](CCSC)NC(=O)[C@H](CC(C)C)NC(=O)[C@H](Cc1c[nH]cn1)NC(=O)[C@H](C)NC(=O)[C@H](CC(N)=O)NC(=O)[C@H](C)NC(=O)[C@H](C)NC(=O)[C@H](C)NC(=O)[C@H](CCC(N)=O)NC(=O)[C@H](C)NC(=O)[C@H](CCCNC(=N)N)NC(=O)[C@H](CC(C)C)NC(=O)[C@H](CC(N)=O)NC(=O)[C@H](CCCCN)NC(=O)[C@H](C)NC(=O)[C@H](CCCCN)NC(=O)[C@H](C)NC(=O)[C@@H](NC(=O)[C@H](CC(N)=O)NC(=O)[C@H](Cc1ccccc1)NC(=O)[C@H](CC(C)C)NC(=O)[C@H](CSC1CC(=O)N(CC)C1=O)NC(=O)[C@H](CC(N)=O)NC(=O)[C@H](CCSC)NC(=O)[C@@H](NC(=O)[C@H](CC(N)=O)NC(=O)[C@@H](NC(=O)[C@@H]1CCCN1C(=O)[C@@H](NC(=O)[C@H](CC(=O)O)NC(=O)[C@H](CC(C)C)NC(=O)[C@H](CO)NC(=O)[C@H](CC(C)C)NC(=O)[C@@H](NC(=O)[C@H](Cc1ccccc1)NC(=O)[C@H](CCCCN)NC(=O)[C@@H](N)[C@@H](C)O)[C@@H](C)O)C(C)C)[C@@H](C)O)[C@@H](C)CC)[C@@H](C)CC)C(N)=O
B6: Cys-variant stresscopin-like peptide SEQ ID NO: 6 (peptide)
peptide: TKFTCSLDVPTNIMNLLFNIAKAKNLRAQAAANAHLMAQI-NH2
B7: Cys-variant stresscopin-like peptide SEQ ID NO: 5 (peptide)
peptide: TKFCLSLDVPTNIMNLLFNIAKAKNLRAQAAANAHLMAQI-NH2
B8: Pegylated Cys-variant stresscopin-like peptide with NES linker and PEG about 20 kDa SEQ ID NO: 55 (peptide)
peptide: CKFTLSLDVPTNIMNLLFNIAKAKNLRAQAAANAHLMAQI
modifications: NES-PEG (about 20 kDa) on Cys 1; C-terminal amide (-NH2)
B9: Pegylated Cys-variant stresscopin-like peptide with NES linker and PEG about 20 kDa SEQ ID NO: 59 (peptide)
peptide: B8 peptide with C1T, L5C
modifications: NES-PEG (about 20 kDa) on Cys 5; C-terminal amide (-NH2)
B10: Pegylated Cys-variant stresscopin-like peptide with NES linker and PEG about 20 kDa SEQ ID NO: 57 (peptide)
peptide: B8 peptide with C1T, F3C
modifications: NES-PEG (about 20 kDa) on Cys 3; C-terminal amide (-NH2)
B11: Pegylated Cys-variant stresscopin-like peptide with NES linker and PEG about 20 kDa SEQ ID NO: 56 (peptide)
peptide: B8 peptide with C1T, K2C
modifications: NES-PEG (about 20 kDa) on Cys 2; C-terminal amide (-NH2)
B12: Pegylated Cys-variant stresscopin-like peptide with NES linker and PEG about 20 kDa SEQ ID NO: 60 (peptide)
peptide: B8 peptide with C1T, S6C
modifications: NES-PEG (about 20 kDa) on Cys 6; C-terminal amide (-NH2)
B13: Pegylated Cys-variant stresscopin-like peptide with NES linker and PEG about 20 kDa SEQ ID NO: 58 (peptide)
peptide: B8 peptide with C1T, T4C
modifications: NES-PEG (about 20 kDa) on Cys 4; C-terminal amide (-NH2)
B14: Cys-variant of stresscopin peptide with N-Ethylsuccinimide (NES) reactive group SEQ ID NO: 53 (peptide)
peptide: TKFTLSLDVPTNIMNLC(Succinimide(1-Et,3-yl))FNIAKAKNLRAQAAANAHLMAQI-NH2
modifications: N-terminus assumed
SMILES: CC[C@H](C)[C@H](NC(=O)[C@H](CCC(N)=O)NC(=O)[C@H](C)NC(=O)[C@H](CCSC)NC(=O)[C@H](CC(C)C)NC(=O)[C@H](Cc1c[nH]cn1)NC(=O)[C@H](C)NC(=O)[C@H](CC(N)=O)NC(=O)[C@H](C)NC(=O)[C@H](C)NC(=O)[C@H](C)NC(=O)[C@H](CCC(N)=O)NC(=O)[C@H](C)NC(=O)[C@H](CCCNC(=N)N)NC(=O)[C@H](CC(C)C)NC(=O)[C@H](CC(N)=O)NC(=O)[C@H](CCCCN)NC(=O)[C@H](C)NC(=O)[C@H](CCCCN)NC(=O)[C@H](C)NC(=O)[C@@H](NC(=O)[C@H](CC(N)=O)NC(=O)[C@H](Cc1ccccc1)NC(=O)[C@H](CSC1CC(=O)N(CC)C1=O)NC(=O)[C@H](CC(C)C)NC(=O)[C@H](CC(N)=O)NC(=O)[C@H](CCSC)NC(=O)[C@@H](NC(=O)[C@H](CC(N)=O)NC(=O)[C@@H](NC(=O)[C@@H]1CCCN1C(=O)[C@@H](NC(=O)[C@H](CC(=O)O)NC(=O)[C@H](CC(C)C)NC(=O)[C@H](CO)NC(=O)[C@H](CC(C)C)NC(=O)[C@@H](NC(=O)[C@H](Cc1ccccc1)NC(=O)[C@H](CCCCN)NC(=O)[C@@H](N)[C@@H](C)O)[C@@H](C)O)C(C)C)[C@@H](C)O)[C@@H](C)CC)[C@@H](C)CC)C(N)=O
B15: Cys-variant stresscopin-like peptide SEQ ID NO: 3 (peptide)
peptide: TCFTLSLDVPTNIMNLLFNIAKAKNLRAQAAANAHLMAQI-NH2
B16: Cys-variant stresscopin-like peptide SEQ ID NO: 7 (peptide)
peptide: TKFTLCLDVPTNIMNLLFNIAKAKNLRAQAAANAHLMAQI-NH2

Changes are numbered by the printed parent chain. Where no end group is shown, it is not given here. The star is where a group is joined. Succinimide(1-Et,3-yl) = CCN1C(=O)CC(*)C1=O

The test has as its target T1, human corticotrophin releasing hormone receptor type 2 (CRHR2) (human, UniProt Q13324 1-411).
T1 sequence (looked up): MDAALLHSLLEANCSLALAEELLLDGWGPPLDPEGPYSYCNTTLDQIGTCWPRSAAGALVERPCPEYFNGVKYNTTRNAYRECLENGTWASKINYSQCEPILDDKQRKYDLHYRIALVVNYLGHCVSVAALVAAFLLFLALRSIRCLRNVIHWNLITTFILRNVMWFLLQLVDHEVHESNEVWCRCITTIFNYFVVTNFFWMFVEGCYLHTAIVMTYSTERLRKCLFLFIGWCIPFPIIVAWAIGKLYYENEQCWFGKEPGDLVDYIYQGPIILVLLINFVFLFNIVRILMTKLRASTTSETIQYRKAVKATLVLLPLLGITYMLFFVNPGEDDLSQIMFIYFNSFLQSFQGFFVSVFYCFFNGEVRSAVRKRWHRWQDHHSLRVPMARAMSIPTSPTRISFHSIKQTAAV
Nature of the test: cell-based or functional assay.
Take B1: the “Log DR” value came out at 1.03 log10 and the pA50 was 8.65 -log10(M).

B2: the “Log DR” value was determined as 0.05 log10 and the pA50 is 9.42 -log10(M).

Regarding B3, the “Log DR” value is 0.72 log10 and the pA50 was 8.97 -log10(M).

Consider B4, for which the “Log DR” value was determined as 2.86 log10 and the pA50 is ~6.82 -log10(M).

B5: the “Log DR” value is -0.08 log10 and the pA50 was 9.55 -log10(M).

Turning to B6, the “Log DR” value came out at 0.61 log10 and the pA50 was 9.07 -log10(M).

Turning to B7, the “Log DR” value worked out at 0.76 log10 and the pA50 is 8.93 -log10(M).

For the molecule B8, the “Log DR” value was about 1.61 log10 and the pA50 was ~7.93 -log10(M).

Regarding B9, the “Log DR” value is about 2.32 log10 and the pA50 is ~7.22 -log10(M).

With B10, the “Log DR” value is about 1.9 log10 and the pA50 is ~7.64 -log10(M).

With B11, the “Log DR” value was about 2.34 log10 and the pA50 is ~7.2 -log10(M).

Regarding B12, the “Log DR” value was over 3.22 log10 and the pA50 is ~6.32 -log10(M).

For the molecule B13, the “Log DR” value was about 2.4 log10 and the pA50 is ~7.14 -log10(M).

As to B14, the “Log DR” value is about 2.22 log10 and the pA50 is ~7.25 -log10(M).

B15: the “Log DR” value amounted to 0.72 log10 and the pA50 was 8.97 -log10(M).

With B16, the “Log DR” value amounted to 2.08 log10 and the pA50 was 7.6 -log10(M).
